We go through seven molecules from patent US20060257407A1 (Janssen / Centocor, published 2006).

In experiment [1] the target is recombinant human IL-6 (human) (UniProt P05231). Briefly: ELISA: IgG dilutions captured on goat anti-human kappa, biotinylated IL-6 at 200 ng/ml, NeutrAvidin-alkaline phosphatase, O.D. 560 after 15 min.
The target in experiment [2] is IL-6/sIL-6R complex (human) (UniProt P08887). As to the kind of experiment: ELISA: sIL-6R coated at 10 µg/ml, human IL-6 added at 200 ng/ml, antibody dilutions, detection with HRP-anti-human IgG, OD490.
Experiment [3] deals with recombinant human IL-6 (human) (UniProt P05231). Briefly: cell-based or functional assay.
Experiment [4] shares this target. As to the kind of experiment: KinExA 3000.
Experiment [5] shares this target. Briefly: calculated, KinExA 3000.
Experiment [6] shares this target. As to the kind of experiment: KinExA 3000, IgG at 200 pM mixed with 100-200 pM human IL-6, free IgG over time. On the technique in general: Kinetic exclusion samples the free partner from a solution-phase mixture.
For experiment [7] the target is unchanged. Briefly: KinExA 3000, equilibrium in solution, IgG at 5 pM with serially diluted human IL-6, 20 C.
Experiment [8] has the same target. As to the kind of experiment: calculated from KD = koff/kon, KinExA 3000.
The target is the same in experiment [9]. As to the kind of experiment: cell-based or functional assay. This is another data set of the same source.
For experiment [10], the target named is T1, IL-6/sIL-6R complex (human, UniProt P08887 20-358, limits assumed).
T1 construct: Formed on the plate: sIL-6R coated at 10 ug/ml, then human IL-6 added at 200 ng/ml; also called sIL-6/sIL-6R complex; IL-6/IL-6R complex
As to the kind of experiment: EIA: sIL-6R coated, 200 ng/ml human IL-6, antibody dilutions from 10 ug/ml, anti-human IgG-HRP. As for the experimental part: Costar EIA plates (Corning/Costar, Acton, Mass.) (Catalog # 9018) were coated with sIL-6R (10 μg/ml in PBS, 100 μl/well) overnight at 4° C. The plates were washed with 0.15M saline containing 0.02% (v/v) Tween 20 and wells were blocked with 1% (w/v) BSA in PBS, 200 μl/well for one hour at room temperature. The wells were washed again then in the sequential format incubated with 200 ng/ml human IL-6 (100 μl/well) in PBS for one hour at room temperature. Antibody was added to all wells in 10-fold serial dilutions from a starting concentration of 10 μg/ml in 100 μl/well for one hour at room temperature. After washing, the wells were incubated with goat anti-human IgG (H+L)-HRP-linked, (10 μg/ml in PBS) for 30 minutes at room temperature. The wells were washed and 100 μl/well of citrate-phosphate substrates solution (0.1M Citric Acid and 0.2M Sodium Phosphate, 0.01% H₂O₂ and 1 mg/ml OPD) was added for 15 minutes at room temperature. The reaction was stopped by addition of 25 μl/well of 4N sulfuric acid and the OD₄₉₀ was read via an automated ELISA plate reader (Molecular Devices Spectromax Plus, Sunnyvale, Calif.).
In addition, AME-A9, AME-A16, AME-18a, AME-20b, AME-22a, and AME-23a can detect IL-6 bound to sgp80 (sIL-6R) in a dose dependent manner using EIA. […] However, preincubation of IL-6 and any of these anti hIL-6 monoclonal antibodies precludes the ability of sIL-6R to bind IL-6.

Experiment [11] deals with T2, recombinant human IL-6 (human, UniProt P05231 30-212).
T2 construct: Bought from R&D Systems (206-IL-010); Biotinylated or coupled to beads in some assays; also called hIL-6; rhIL-6
Briefly: KinExA 3000, IgG at 200 pM mixed with 100-200 pM human IL-6, free IgG over time. As to the method:
(§1) To measure kₒₙ, individual IgGs at 200 pM were mixed with 100-200 pM of human IL-6 and the unbound IgG was detected by binding to human IL-6 covalently coupled to alzactone beads on the KinExA 3000 instrument. A series of measurements were taken over time. The resulting data was used to calculate the kₒₙ with the KinExA 3000 software. koff was calculated by using the formula KD=koff/kₒₙ.

In experiment [12] the target is T2, recombinant human IL-6. As to the kind of experiment: KinExA 3000, equilibrium in solution, IgG at 1 pM with serially diluted human IL-6, 20 C. As for the experimental part: (§2) The KinExA 3000 instrument, manufactured by Sapidyne, was used to measure binding kinetics. Briefly, human IL-6 was covalently coupled to alzactone beads and the binding of free IgG to the beads was detected on the instrument. […] For example, the chimeric anti-IL-6 antibody was used at a constant concentration of 5 pM and individual tubes were incubated with 0-200 pM of IL-6. Incubations for the other IgGs were set in a similar manner. After the incubation, free IgG in each equilibrated sample was determined on the KinExA 3000 instrument according to the manufacturer's instructions. KD values were determined by the KinExA 3000 software using the KinExA 3000 instrument, as described in more detail below.

The target of experiment [13] is T2, recombinant human IL-6. Briefly: calculated from KD = koff/kon, KinExA 3000. As to the method: as §2, §1
Experiment [14] has as its target T2, recombinant human IL-6. Briefly: calculated, KinExA 3000. As to the method:
as §2, §1

In experiment [15] the target is T2, recombinant human IL-6. Briefly: KinExA 3000. As to the method:
as §2, §1

Experiment [16] has as its target T2, recombinant human IL-6. Briefly: ELISA: IgG dilutions captured on goat anti-human kappa, biotinylated IL-6 at 200 ng/ml, NeutrAvidin-alkaline phosphatase, O.D. 560 after 15 min. As for the experimental part: The ELISA generally used Costar 3366 microtiter plates coated with a goat anti-human kappa antibody. Dilutions of Fab (or IgG) were incubated in the coated wells for 1 hr at 22° C. The wells were then washed with PBS, 0.1% Tween 20 and biotinylated IL-6 at 200 ng/ml was added for 1 hour. After washing, an alkaline phosphatase conjugate of NeutrAvidin was added and incubated for 1 hour at 22° C. A colorimetric substrate was added after extensive washing and the bound IL-6 was determined. A variation of this ELISA included an extended wash step in a beaker of PBS, 0.01% BSA at 37° C. after the biotinylated IL-6 incubation, e.g., an 18 hour extended wash step.

The target in experiment [17] is T2, recombinant human IL-6. As to the kind of experiment: KinExA 3000, equilibrium in solution, IgG at 0.5 pM with serially diluted human IL-6, 20 C. As for the experimental part: as §2

Where two headings read alike, the source gives them in different places.

T1 sequence (chain, as listed by the source limits assumed, chain 1 of 2): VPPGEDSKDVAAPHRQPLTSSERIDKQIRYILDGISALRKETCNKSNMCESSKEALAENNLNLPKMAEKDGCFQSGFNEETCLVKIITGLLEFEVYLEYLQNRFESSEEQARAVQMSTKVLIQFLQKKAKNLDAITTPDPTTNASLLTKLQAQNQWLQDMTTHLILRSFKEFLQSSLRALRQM
T1 sequence (P08887 20-358 limits assumed, chain 2 of 2): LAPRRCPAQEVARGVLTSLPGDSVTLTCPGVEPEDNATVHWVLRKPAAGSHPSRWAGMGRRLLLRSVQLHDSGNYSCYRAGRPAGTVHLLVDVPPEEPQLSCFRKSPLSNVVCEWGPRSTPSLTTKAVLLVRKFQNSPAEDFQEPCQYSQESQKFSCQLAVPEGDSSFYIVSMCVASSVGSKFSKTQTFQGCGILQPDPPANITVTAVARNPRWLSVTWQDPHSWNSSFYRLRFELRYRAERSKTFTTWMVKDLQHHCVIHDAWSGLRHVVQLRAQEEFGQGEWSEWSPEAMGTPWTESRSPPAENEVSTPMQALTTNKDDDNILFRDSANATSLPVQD
T2 sequence (P05231 30-212 limits assumed): as the sequence (chain, as listed by the source limits assumed, chain 1 of 2) above
recombinant human IL-6 (human), sequence (P05231 30-212 limits assumed): as the sequence (chain, as listed by the source limits assumed, chain 1 of 2) above
IL-6/sIL-6R complex (human), sequence (chain, as listed by the source limits assumed, chain 1 of 2): as above
IL-6/sIL-6R complex (human), sequence (P08887 20-358 limits assumed, chain 2 of 2): as the sequence (P08887 20-358 limits assumed, chain 2 of 2) above

B1: chimeric anti-IL-6 antibody CNTO 328 (antibody, INN chains, looked up, V domains shown)
VH: EVQLVESGGKLLKPGGSLKLSCAASGFTFSSFAMSWFRQSPEKRLEWVAEISSGGSYTYYPDTVTGRFTISRDNAKNTLYLEMSSLRSEDTAMYYCARGLWGYYALDYWGQGTSVTVSS
VL: QIVLIQSPAIMSASPGEKVTMTCSASSSVSYMYWYQQKPGSSPRLLIYDTSNLASGVPVRFSGSGSGTSYSLTISRMEAEDAATYYCQQWSGYPYTFGGGTKLEIK
modifications: biotinylated in competition ELISA
By EC50 (read off the curve) is commonly meant the concentration giving half of the maximal effect. The kon is the second-order rate constant of association. For orientation: Kd means the free concentration of one partner at which half of the binding sites on the other are occupied at equilibrium, for simple one-to-one binding. Broadly, the koff is a measure of how fast the partners let go of each other. In the case of B1, the EC50 (read off the curve) in experiment [1] is 0.1 µg/mL; in experiment [2], 0.01 µg/mL. Besides, the values for the EC50, growth of IL-6 dependent 7TD1 cells with 500 pg/ml human IL-6 (ATPlite) in experiment [3] and in experiment [9] were 27 pM and 0.00409 µg/mL, respectively. Also, the Improvement Ratio of KD (as compared to chimeric ab) in experiment [4] stood at 1 fold. In addition, the Improvement Ratio of kon (against chimeric antibody) in [4] worked out at 1 fold. Besides, the Improvement Ratio of koff (against chimeric antibody) in experiment [5] is 1 fold. For the same molecule, the kon in experiment [6] turned out to be 4.4e+06 M⁻¹ s⁻¹. Besides, in experiment [7], the Kd is 3 pM. In addition, the koff in experiment [8] was 1.3e-05 s⁻¹.

B2: AME-20b (antibody, V domains shown)
VH: EVQLVESGGGLVQPGGSLRLSCAASGFQFSSFAMSWVRQAPGKGLEWVAKISPGGSYTYYSDTVTGRFTISRDNAKNSLYLQMNSLRAEDTAVYYCARQLWGYYALDIWGQGTTVTVSS
VL: EIVLTQSPATLSLSPGERATLSCSASISVSYMYWYQQKPGQAPRLLIYDMSNLASGIPARFSGSGSGTDFTLTISSLEPEDFAVYYCMQWSGYPYTFGGGTKVEIK
notes: Tested as IgG; also called 140
Turning to B2, the binding result in experiment [10] is recorded as “binds”. In [11], the kon is 4.7e+06 M⁻¹ s⁻¹. The Kd in experiment [12] worked out at 0.78 pM. Moreover, the koff in [13] is 3.7e-06 s⁻¹. The “Improvement Ratio of koff (against chimeric antibody)” value (shortened to “Improvement Ratio of koff”) in experiment [14] was 3.5 fold. In [15], the “Improvement Ratio of KD (as compared to chimeric ab)” value (from here on “Improvement Ratio of KD”) came to 3.8 fold and the “Improvement Ratio of kon (against chimeric antibody)” value (from here on “Improvement Ratio of kon”) was determined as 1 fold.

B3: AME-23a (antibody, V domains shown)
VH: EVQLVESGGGLVQPGGSLRLSCAASGFQFSSFAMSWVRQAPGKGLEWVAKISPGGSYTYYSDTVTGRFTISRDNAKNSLYLQMNSLRAEDTAVYYCARQLWGYYALDFWGQGTTVTVSS
VL: EIVLTQSPATLSLSPGERATLSCSASYSVSYMYWYQQKPGQAPRLLIYDMSNLASGIPARFSGSGSGTDFTLTISSLEPEDFAVYYCMQWSGYPYTFGGGTKVEIK
notes: Tested as IgG; also called 143
For B3, in [10], the binding result is given as “binds”. Moreover, the kon in experiment [11] is 7.4e+06 M⁻¹ s⁻¹. In [12], the Kd was 0.006 pM. For the same molecule, the koff in experiment [13] was 4.4e-08 s⁻¹. The “Improvement Ratio of koff” value in experiment [14] was 295 fold. For the same molecule, in experiment [15], the “Improvement Ratio of KD” value amounted to 500 fold and the “Improvement Ratio of kon” value turned out to be 1.6 fold.

B4: AME-A9 (antibody, V domains shown)
VH: EVQLVESGGGLVQPGGSLRLSCAASGFTFSSFAMSWVRQAPGKGLEWVAKISSGGSYTYYPDTVTGRFTISRDNAKNSLYLQMNSLRAEDTAVYYCARQLWGYYALDYWGQGTTVTVSS
VL: EIVLTQSPATLSLSPGERATLSCSASSSVSYMYWYQQKPGQAPRLLIYDTSNLASGIPARFSGSGSGTDFTLTISSLEPEDFAVYYCSQWSGYPYTFGGGTKVEIK
notes: Human engineered monoclonal antibody, detected with anti-human IgG; also called 104
As for B4, the binding result in experiment [10] is “binds”. The “EC50 (read off the curve)” value in experiment [16] was around 0.09 µg/mL.

B5: AME-18a (antibody, V domains shown)
VH: EVQLVESGGGLVQPGGSLRLSCAASGFQFSPFAMSWVRQAPGKGLEWVAKISPGGSWTYYSDTVTGRFTISRDNAKNSLYLQMNSLRAEDTAVYYCARQLWGYYALDIWGQGTTVTVSS
VL: EIVLTQSPATLSLSPGERATLSCSASSSVSYMYWYQQKPGQAPRLLIYDFSNLASGIPARFSGSGSGTDFTLTISSLEPEDFAVYYCMQWSGYPYTFGGGTKVEIK
notes: Tested as IgG; also called 130
For the molecule B5, the binding result in [10] is “binds”. Further, the kon in [11] is 2e+07 M⁻¹ s⁻¹. The Kd in experiment [17] stood at 0.12 pM. Besides, the “EC50 (read off the curve)” value in [16] is around 0.09 µg/mL. Also, the koff in experiment [13] was 2.4e-06 s⁻¹. The “Improvement Ratio of koff” value in [14] was 5.4 fold. Besides, in [15], the “Improvement Ratio of KD” value was 25 fold and the “Improvement Ratio of kon” value is 4.4 fold.

B6: AME-16 (antibody, V domains shown)
VH: EVQLVESGGGLVQPGGSLRLSCAASGFTFSSFAMSWVRQAPGKGLEWVAKISPGGSYTYYPDTVTGRFTISRDNAKNSLYLQMNSLRAEDTAVYYCARQLWGYYALDYWGQGTTVTVSS
VL: EIVLTQSPATLSLSPGERATLSCSASSSVSYMYWYQQKPGQAPRLLIYDTSNLASGIPARFSGSGSGTDFTLTISSLEPEDFAVYYCSQWSGYPYTFGGGTKVEIK
notes: Tested as IgG; also called AME-A16; 106
B6: the binding result in experiment [10] is “binds”. The kon in [11] came out at 1e+06 M⁻¹ s⁻¹. Further, the “EC50 (read off the curve)” value in [16] was around 0.07 µg/mL. The Kd in [12] was 0.83 pM. For the same molecule, the koff in experiment [13] is 8.3e-07 s⁻¹. For the same molecule, the “Improvement Ratio of koff” value in [14] was 15.7 fold. For the same molecule, in [15], the “Improvement Ratio of KD” value was 3.6 fold and the “Improvement Ratio of kon” value was 0.22 fold.

B7: AME-22a (antibody, V domains shown)
VH: EVQLVESGGGLVQPGGSLRLSCAASGFQFSPFAMSWVRQAPGKGLEWVAKISPGGSWTYYPDTDTGRFTISRDNAKNSLYLQMNSLRAEDTAVYYCARQLWGYYALDFWGQGTTVTVSS
VL: EIVLTQSPATLSLSPGERATLSCSASYSVSYMYWYQQKPGQAPRLLIYDFSNLASGIPARFSGSGSGTDFTLTISSLEPEDFAVYYCMQWSGYPYTFGGGTKVEIK
notes: Tested as IgG; also called 150
As for B7, in experiment [11], the kon was determined as 6e+06 M⁻¹ s⁻¹. The Kd in experiment [12] was 0.18 pM. In addition, in [13], the koff is 1.1e-06 s⁻¹. Also, in experiment [14], the “Improvement Ratio of koff” value was 11.8 fold. Further, in experiment [15], the “Improvement Ratio of KD” value is 16.7 fold and the “Improvement Ratio of kon” value was found to be 1.3 fold.
